Results from patent publication US20100015130.

Legend:
[1] = target: T1, GST-tagged mouse DISC1 fragment 596-852aa (UniProt Q811T9)
T1 sequence: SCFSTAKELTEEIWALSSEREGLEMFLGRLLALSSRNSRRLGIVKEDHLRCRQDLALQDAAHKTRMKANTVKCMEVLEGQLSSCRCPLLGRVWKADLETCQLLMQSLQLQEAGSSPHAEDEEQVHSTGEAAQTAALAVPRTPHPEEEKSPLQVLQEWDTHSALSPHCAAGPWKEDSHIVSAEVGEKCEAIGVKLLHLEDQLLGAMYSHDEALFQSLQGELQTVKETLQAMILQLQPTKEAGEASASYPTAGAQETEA

[2] = target: T2, GST-tagged mouse DISC1 fragment 1-220aa (UniProt Q811T9)
T2 sequence: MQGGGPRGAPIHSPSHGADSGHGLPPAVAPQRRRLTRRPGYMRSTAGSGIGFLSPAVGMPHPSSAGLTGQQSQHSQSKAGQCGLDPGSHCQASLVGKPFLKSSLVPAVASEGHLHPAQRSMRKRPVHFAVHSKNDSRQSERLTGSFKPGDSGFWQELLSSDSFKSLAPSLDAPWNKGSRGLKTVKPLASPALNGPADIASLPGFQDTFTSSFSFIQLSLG

[3] = target: T3, GST-tagged mouse DISC1 fragment 356-595aa (UniProt Q811T9)
T3 sequence: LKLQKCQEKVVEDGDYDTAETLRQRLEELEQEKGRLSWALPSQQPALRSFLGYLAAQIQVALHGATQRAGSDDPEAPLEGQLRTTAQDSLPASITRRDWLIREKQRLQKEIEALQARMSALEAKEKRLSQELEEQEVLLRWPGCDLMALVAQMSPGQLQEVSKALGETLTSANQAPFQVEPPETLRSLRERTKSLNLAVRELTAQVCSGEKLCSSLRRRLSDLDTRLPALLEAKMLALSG

[4] = target: T4, GST-tagged mouse DISC1 fragment 221-355aa (UniProt Q811T9)
T4 sequence: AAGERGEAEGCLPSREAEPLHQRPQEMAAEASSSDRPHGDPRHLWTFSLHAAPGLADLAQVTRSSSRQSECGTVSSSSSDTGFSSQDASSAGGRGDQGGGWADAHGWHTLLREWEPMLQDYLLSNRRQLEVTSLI

## GST-GSK3β (recombinant, Active Motif)
[1]
  in vitro kinase assay: GST-β-catenin phosphorylation, GST-axin phosphorylation and GSK3β autophosphorylation at Y216: none of the other 3 DISC1 fragments, GST-p25, or GST-CASK proteins inhibited GSK3β activity at this concentration (0.5 µM)
[2]
  GSK3β Y216 phosphorylation, dose response in vitro: no inhibition of GSK3β Y216 phosphorylation was observed at 0.1 µM and the inhibition of phosphorylation plateaued at 1 µM
  in vitro kinase assay: GST-β-catenin phosphorylation, GST-axin phosphorylation and GSK3β autophosphorylation at Y216: potently inhibited β-catenin, axin and GSK3β phosphorylation at 0.5 µM
[3]
  GSK3β autophosphorylation (Y216), in vitro kinase assay: at higher concentrations (2 µM), DISC1 fragments spanning 221-355 and 356-595 started to inhibit GSK3β autophosphorylation
  in vitro kinase assay: GST-β-catenin phosphorylation, GST-axin phosphorylation and GSK3β autophosphorylation at Y216: none of the other 3 DISC1 fragments, GST-p25, or GST-CASK proteins inhibited GSK3β activity at this concentration (0.5 µM)
[4]
  GSK3β autophosphorylation (Y216), in vitro kinase assay: at higher concentrations (2 µM), DISC1 fragments spanning 221-355 and 356-595 started to inhibit GSK3β autophosphorylation
  in vitro kinase assay: GST-β-catenin phosphorylation, GST-axin phosphorylation and GSK3β autophosphorylation at Y216: none of the other 3 DISC1 fragments, GST-p25, or GST-CASK proteins inhibited GSK3β activity at this concentration (0.5 µM)
